{"source": "patent US20050245441A1", "target": "rat GIP receptor (rat) (UniProt P43219)", "sequence (P43219 19-455)": "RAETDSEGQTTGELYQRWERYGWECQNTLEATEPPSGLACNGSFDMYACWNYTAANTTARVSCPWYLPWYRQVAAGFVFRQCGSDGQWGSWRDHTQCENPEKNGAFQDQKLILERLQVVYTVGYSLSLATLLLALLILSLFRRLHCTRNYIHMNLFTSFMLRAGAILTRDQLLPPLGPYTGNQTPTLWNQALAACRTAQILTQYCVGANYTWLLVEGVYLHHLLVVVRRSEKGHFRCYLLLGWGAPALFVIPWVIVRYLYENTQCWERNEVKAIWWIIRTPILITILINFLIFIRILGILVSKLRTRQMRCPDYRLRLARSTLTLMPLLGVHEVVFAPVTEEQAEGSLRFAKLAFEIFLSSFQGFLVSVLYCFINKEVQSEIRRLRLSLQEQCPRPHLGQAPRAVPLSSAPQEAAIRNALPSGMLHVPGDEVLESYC", "test": "cell-based or functional assay", "data": [{"substance": "synthetic porcine GIP (Sigma) (from UniProt P01281 1-42) (peptide)", "values": [{"measurement": "cell proliferation (CyQUANT DNA content) of cultured adult hippocampal progenitor cells, 1 nM GIP, 48 h (% increase relative to control)", "value": 74.5}, {"measurement": "methyl-[3H]-thymidin incorporation in cultured adult hippocampal progenitor cells, 1 nM GIP, 24 h (% increase compared to control)", "value": 32.4}]}]}
